Drawing on patent US20150299265A1 (Molecular Partners, published 2015), this text covers Kd for 14 molecules.

The test deals with T1, Recombinant human HER2 ectodomain (human, UniProt P04626 23-652, biotinylated on primary amines (for SPR and crude extract ELISA)).
T1 construct: extracellular domain; also called ErbB2; ectodomain of human HER2; not shown: Flag tag
The test is described as follows: SPR (ProteOn); biotinylated human HER2 on neutravidin chip, monovalent DARPin injected. As for the experimental part: Protein binding kinetics of interesting purified HER2-binding DARPins were assayed by Surface Plasmon Resonance (SPR) analysis with a ProteOn array system (BioRad) using a setup, where biotinylated human HER2 was immobilized via neutravidin and the interaction was measured by adding free monovalent DARPin. The determination of Kd values was performed according to standard procedures.
SPR was measured using a ProteOn instrument (BioRad) and measurement was performed according standard procedures known to the person skilled in the art. The running buffer was PBS, pH 7.4, containing 0.005% Tween 20®. Neutravidin was covalently immobilized on a GLC chip (BioRad) to a level of about 8000 resonance units (RU). Immobilization of HER2 on the neutravidin coated chip was then performed. […] The signals (i.e. resonance unit (RU) values) of an uncoated reference cell and a reference injection (i.e. injection of running buffer only) were subtracted from the RU traces obtained after injection of […] (double-referencing). From the SRP traces obtained from the on-rate and off-rate measurements the on- and off-rate of the corresponding DARPin HER2 interaction can be determined.
Dissociation constants (Kd) were calculated from the estimated on- and off-rates using standard procedures known to the person skilled in the art.

Residue numbers refer to the chain shown, from its start.

B1: DARPin #11 (designed binder)
chain: MRGSHHHHHHGSDLGIKLLFAASRGQDDEVRILLAAGADVNAKDFEGITPLHAAARSGHLEIVEVLLKAGADVNAKDVEGWTPLHYAASYGHLEIVEVLLKAGADVNAQDNHGATPADLAAQWGHEDIAEVLQKLN
notes: monovalent
In general, Kd refers to the constant that tells how readily two partners part at equilibrium. B1: the Kd amounted to 0.256 nM.

B2: DARPin #12 (designed binder)
chain: MRGSHHHHHHGSDLGKKLLEAARAGQDDEVRILMANGADVNAKDFYGITPLHLAAAYGHLEIVEVLLKHGADVNAHDWNGWTPLHLAAKYGHLEIVEVLLKHGADVNAIDNAGKTPLHLAAAHGHLEIVEVLLKYGADVNAQDKFGKTAFDISIDNGNEDLAEILQKLN
notes: monovalent
Take B2: the Kd was 1.41 nM.

B3: DARPin #16 (designed binder)
chain: MRGSHHHHHHGSDLGIKLLQAANLGQDDEVRELLKAGADVNAKDSIGQTPLHWAARRGHLEIVEVLLKAGADVNAKDEYGVTPLHLAASLGHLEIVEVLLKAGADVNAQDESGETPADLAALHGHEDIAEVLQKLN
notes: monovalent
As to B3, the Kd stood at 2.67 nM.

B4: DARPin #17 (designed binder)
chain: B3 chain with I16L, E32I, K35A, E111T, S112A, E114Q, L122D, H123D, E130V
notes: monovalent
As for B4, the Kd was 2.3 nM.

B5: DARPin #10 (designed binder)
chain: MRGSHHHHHHGSDLGVKLLWAASHGQDDEVRILLAAGADVNAKDFFGITPLHQAAWGHLEIVEVLLKAGADVNAKEEDGTTPLHLAATHGHLEIVEVLLKAGADVNAQDWYGTTPADLAAWWGHEDIAEVLQKLN
notes: monovalent
As to B5, the Kd came out at 1.03 nM.

B6: DARPin #14 (designed binder)
chain: MRGSHHHHHHGSDLGAKLLIAATVGQDDEVRILLAAGADVNAKDTIGHTPLHRAAFVGQLEIVEVLLKAGADVNAQDDYGWTPADLAANSGHEDIAEVLQKLN
notes: monovalent
On to B6, for which the Kd came to 1.88 nM.

B7: DARPin #15 (designed binder)
chain: B6 chain with I20V, V24S, T45R, H48F, Q59H, Y79F, W81H, N89S, S90L
notes: monovalent
For the molecule B7, the Kd is 0.468 nM.

B8: DARPin #19 (designed binder)
chain: MRGSHHHHHHGSDLGKKLLEAARAGQDDEVRELLKAGADVNAKDEYGLTPLYLATAHGHLEIVEVLLKNGADVNAVDAIGFTPLHLAAFIGHLEIAEVLLKHGADVNAQDKSGKTPADLAAGAGHEDIAEVLQKLN
notes: monovalent
Take B8: the Kd was found to be 0.944 nM.

B9: DARPin #20 (designed binder)
chain: B8 chain with N69A, H102A, S112F, L119I, H125N
notes: monovalent
Regarding B9, the Kd was found to be 0.258 nM.

B10: DARPin #18 (designed binder)
chain: MRGSHHHHHHGSDLGKKLLEAARAGQDDEVRILMANGADVNAKDEYGLTPLYLATAHGHLEIVEVLLKNGADVNAVDAIGFTPLHLAAFIGHLEIAEVLLKHGADVNAQDKFGKTAFDISIGNGNEDLAEILQKLN
notes: monovalent
B10: the dissociation constant (Kd) turned out to be 0.335 nM.

B11: DARPin #56 (designed binder)
chain: MRGSHHHHHHGSDLGQKLLIAASRGQDDEVRILLAAGADVNAKDFQGVTPLHIAAQSGHLEIVEVLLKAGADVNAKDVTGDTPLHLAAQHGHLEIVEVLLKAGADVNAQDERGWTPTDLAADWGHEDIAEVLQKLN
notes: monovalent
As for B11, the Kd stood at 2 nM.

B12: DARPin #58 (designed binder)
chain: B11 chain with Q16F, I20F, S23A, R24K, G25S, P50S, T117A
notes: monovalent
Consider B12, for which the dissociation constant Kd is 0.0413 nM.

B13: DARPin #57 (designed binder)
chain: B11 chain with Q16I, I20W, S23A, R24Q, I62V, T117A
notes: monovalent
With B13, the dissociation constant Kd was 0.0604 nM.

B14: DARPin #59 (designed binder)
chain: MRGSHHHHHHGSDLGVKLLWAAARGQDDEVRELLKAGADVNAKDFQGITPLHIAATNGHLEIVEVLLKAGADVNAKDITGETPLHHAADSGHLEIVEVLLKAGADVNAQDKAGVTPADLAAAWGHEDIAEVLQKLN
notes: monovalent
For the molecule B14, the Kd came out at 0.0333 nM.
